B1: CT390: LL-DAP aminotransferase encoded by ct390 of Chlamydia trachomatis (SEQ ID NO: 9), His-Tag fusion (protein, listed as Chlamydia trachomatis)
chain: MKRNPHFVSLTKNYLFADLQKRVAQFRLENPQHTVINLSIGDTTQPLNASVAEAFASSIARLSSPTTCRGYGPDFGLPALRQKLSEDFYRGFVDAKEIFISDGAKVDLFRLLSFFGPNQTVAIQDPSYPAYLDIARLTGAKEIIALPCLQENAFFPEFPEDTHIDILCLCSPNNPTGTVLNKDQLRAIVHYAIEHEILILFDAAYSTFISDPSLPKSIFEIPDARFCAIEINSFSKPLGFAGIRLGWTVIPQELTYADGHFVIQDWERFLSTTFNGASIPAQEAGVAGLSILPQLEAIHYYRENSDLLRKALLATGFEVFGGEHAPYLWVKPTQANISDRDLFDFFLREYHIAITPGIGFGRSGSGFVRFSSLGKREDILAACERLQMAPALQS
modifications: His-Tag
B2: Arabidopsis LL-DAP-AT: LL-DAP aminotransferase encoded by Arabidopsis locus At4g33680 (SEQ ID NO: 7), recombinant protein (protein, listed as Arabidopsis thaliana)
chain: MSSTHQLVSSMISSSSSTFLAPSNFNLRTRNACLPMAKRVNTCKCVATPQEKIEYKTKVSRNSNMSKLQAGYLFPEIARRRSAHLLKYPDAQVISLGIGDTTEPIPEVITSAMAKKAHELSTIEGYSGYGAEQGAKPLRAAIAKTFYGGLGIGDDDVFVSDGAKCDISRLQVMFGSNVTIAVQDPSYPAYVDSSVIMGQTGQFNTDVQKYGNIEYMRCTPENGFFPDLSTVGRTDIIFFCSPNNPTGAAATREQLTQLVEFAKKNGSIIVYDSAYAMYMSDDNPRSIFEIPGAEEVAMETASFSKYAGFTGVRLGWTVIPKKLLYSDGFPVAKDFNRIICTCFNGASNISQAGALACLTPEGLEAMHKVIGFYKENTNIIIDTFTSLGYDVYGGKNAPYVWVHFPNQSSWDVFAEILEKTHVVTTPGSGFGPGGEGFVRVSAFGHRENILEACRRFKQLYK

How the values were obtained:
Type in all cases: biochemical
CT390 [1] = target: T1, CT390 (Chlamydia trachomatis serovar D, UniProt O84395); experiment: Quantitative forward assay of pure CT390; settings: saturating substrates
T1 construct: His-Tag (N); made in house; host or cells: E. coli
Procedure: All enzyme assays were carried out essentially as described in Example I. Incubation temperature was 30° C. Kinetic constants were determined by varying substrate concentrations while keeping the co-substrate level constant at the concentration described below. Kinetic data were analyzed by non-linear regression analysis using GraphPad Prizm Version 4.03.
Quantitative assay of the physiologically forward reaction was carried out sequentially in a pre-reaction to generate THDP from m-DAP followed by an LL-DAP aminotransferase assay. […] The pre-reaction was run to completion, monitored by the increase in absorbance at 340 nm resulting from NADPH formation. The aminotransferase reaction was monitored at 398 nm to measure the formation of thioNADH. […] Subsequently, the aminotransferase assay was initiated by addition of CT390, bringing the total reaction volume to 1 mL.

CT390 [2] = target: T1, CT390; experiment: Quantitative reverse assay of pure CT390; settings: reverse assay, saturating substrates
LL-DAP-AT (At4g33680) = target: T2, LL-DAP-AT (At4g33680) (Arabidopsis thaliana, UniProt Q93ZN9); experiment: Reverse OAB assay of pure recombinant LL-DAP-AT, temperature and pH optimum; settings: data not shown
T2 construct: The recombinant protein lacks the first 39 amino acids of the At4g33680 protein; hexa-His (N); S-TAG (N); made in house; host or cells: E. coli BL21-CodonPlus-RIPL
Procedure: (§1) For enzyme assays of crude proteins, extracts were prepared by grinding tissue in liquid nitrogen with 100 mM HEPESKOH (pH 7.6), followed by centrifugation at 10,000 g for 15 min, and then buffer exchange using an Amicon Ultra 30,000 MWCO filter. […] Reactions were incubated at 30° C. and the ΔA (440 nm) measured continuously. […] The reaction was incubated at 30° C., and the decrease in A340 was measured. […] The reaction was run to completion, determined by monitoring the increase in A340. […] The kinetic constants were calculated by nonlinear regression analysis using GraphPad Prizm version 4.03.
The kinetic properties of the pure recombinant At4g33680 enzyme were studied using several different assays. […] Most aminotransferases require pyridoxal phosphate as a cofactor (Liepman and Olsen, 2004). The Lys residue at position 305 in the At4g33680 protein is predicted to be the pyridoxal phosphate ligand. […] The enzyme was also found to show a temperature optimum of 36° C. and a pH optimum of 7.6 when HEPESKOH buffer was used, and 7.9 when Tris HCl buffer was used (data not shown).

LL-DAP transaminase [3] = experiment: Quantitative reverse assay of purified microbial LL-DAP transaminases; settings: reverse
Procedure: (§2) Enzyme assays were performed as described above in Examples I and II.
(§3) The catalytic properties of sll0480, BF2643, Dhaf—3980, MTH52, and SfumDRAFT0821 were studied in greater detail using purified enzymes to determine their kinetic constants using quantitative forward and reverse assays.

LL-DAP transaminase [4] = experiment: Quantitative forward assay of purified microbial LL-DAP transaminases
Procedure: as §2, §3

[5] = target: T3, Arabidopsis LL-DAP-AT (At4g33680) (Arabidopsis thaliana, UniProt Q93ZN9); experiment: Quantitative forward assay coupled to 2-OG dehydrogenase, pure recombinant LL-DAP-AT; settings: for Vmax: forward assay; for Forward (biosynthetic) activity disfavored compared with the reverse activity: initial rate, forward versus reverse
T3 construct: The recombinant protein lacks the first 39 amino acids of the At4g33680 protein; hexa-His (N); S-TAG (N); made in house; host or cells: E. coli BL21-CodonPlus-RIPL
Procedure: FIG. 4. […] The forward assay was conducted in two steps. […] The aminotransferase was assayed in the second step.
as §1
The overall reaction series is shown in Scheme 2.
Thio-NADH has an absorbance maximum at 398 nm, which can be discerned from NADPH, which has an absorbance maximum at 340 nm. FIG. 4 illustrates such a reaction. […] Two plots are shown using 0.55 and 0.055 mM m-DAP.

[6] = target: T3, Arabidopsis LL-DAP-AT (At4g33680); experiment: Quantitative reverse assay coupled to Ddh, pure recombinant LL-DAP-AT; settings: 30° C.
Procedure: For enzyme assays of crude proteins, extracts were prepared by grinding tissue in liquid nitrogen with 100 mM HEPESKOH (pH 7.6), followed by centrifugation at 10,000 g for 15 min, and then buffer exchange using an Amicon Ultra 30,000 MWCO filter. […] Reactions were incubated at 30° C. and the ΔA (440 nm) measured continuously. […] The reaction was incubated at 30° C., and the decrease in A340 was measured. […] The reaction was run to completion, determined by monitoring the increase in A340.
For this reason quantitative coupled assays were developed to assess the enzyme activity in both the reverse and forward directions. […] The reaction sequence is shown in Scheme 1.

| Molecule | Vmax (CT390 [1]) | Vmax (CT390 [2]) | pH optimum (LL-DAP-AT (At4g33680); HEPESKOH buffer) | pH optimum (LL-DAP-AT (At4g33680); Tris HCl buffer) | Temperature optimum (LL-DAP-AT (At4g33680)) | Vmax R (LL-DAP transaminase [3]) | Vmax F (LL-DAP transaminase [4]) | Vmax [5] | Vmax ([5]; listed as LL-DAP-AT) | Forward (biosynthetic) activity disfavored compared with the reverse activity [5] | Forward (biosynthetic) activity disfavored compared with the reverse activity ([5]; listed as A. thaliana enzyme) | Vmax ([6]; pH 7.5) | Vmax ([6]; pH 7.5, listed as LL-DAP-AT) |
| --- | --- | --- | --- | --- | --- | --- | --- | --- | --- | --- | --- | --- | --- |
| B1 | 0.38 μmol min^−1mg proteins^−1 | 0.59 μmol min^−1mg proteins^−1 | – | – | – | – | – | – | – | – | – | – | – |
| B2 | – | – | 7.6 | 7.9 | 36 °C | 12 µmol/min/mg | 0.8 µmol/min/mg | 0.38 ± 0.01 μmol min^−1 mg^−1 protein | 0.38 μmol min^−1 mg^−1 protein | 50 fold | approximately 60 fold | 22.3 ± 0.3 μmol min^−1 mg^−1 protein | 22.3 μmol min^−1 mg^−1 protein |

— US20090158455A1, “COMPOSITIONS AND METHODS FOR MODULATING LYSINE PRODUCTION” (priority 2005, published 2009)
